The values below come from paper PMC13105642.

The assay has as its target Antibody_82-M1. The experiment in a line: SPR; Biacore 8K; antibody captured on a Protein G chip; gradient concentrations of LONP1 as analyte; 1x HBS-EP buffer; fitted to a 1:1 binding model.

Chain of Antibody_82-M1 (heavy, as listed by the source, chain 1 of 2): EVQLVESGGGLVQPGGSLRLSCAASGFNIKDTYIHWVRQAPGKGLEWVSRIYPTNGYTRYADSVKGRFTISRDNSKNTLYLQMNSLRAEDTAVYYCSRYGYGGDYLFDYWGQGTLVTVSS
Chain of Antibody_82-M1 (light, as listed by the source, chain 2 of 2): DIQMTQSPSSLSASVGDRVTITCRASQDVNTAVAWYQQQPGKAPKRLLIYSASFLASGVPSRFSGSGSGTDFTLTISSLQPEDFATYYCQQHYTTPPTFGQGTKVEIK

B1: Lon Peptidase 1 (LONP1) (enzyme)
chain: FWEASSRGGGAFSGGEDASEGGAEEGAGGAGGSAGAGEGPVITALTPMTIPDVFPHLPLIAITRNPVFPRFIKIIEVKNKKLVELLRRKVRLAQPYVGVFLKRDDSNESDVVESLDEIYHTGTFAQIHEMQDLGDKLRMIVMGHRRVHISRQLEVEPEEPEAENKHKPRRKSKRGKKEAEDELSARHPAELAMEPTPELPAEVLMVEVENVVHEDFQVTEEVKALTAEIVKTIRDIIALNPLYRESVLQMMQAGQRVVDNPIYLSDMGAALTGAESHELQDVLEETNIPKRLYKALSLLKKEFELSKLQQRLGREVEEKIKQTHRKYLLQEQLKIIKKELGLEKDDKDAIEEKFRERLKELVVPKHVMDVVDEELSKLGLLDNHSSEFNVTRNYLDWLTSIPWGKYSNENLDLARAQAVLEEDHYGMEDVKKRILEFIAVSQLRGSTQGKILCFYGPPGVGKTSIARSIARALNREYFRFSVGGMTDVAEIKGHRRTYVGAMPGKIIQCLKKTKTENPLILIDEVDKIGRGYQGDPSSALLELLDPEQNANFLDHYLDVPVDLSKVLFICTANVTDTIPEPLRDRMEMINVSGYVAQEKLAIAERYLVPQARALCGLDESKAKLSSDVLTLLIKQYCRESGVRNLQKQVEKVLRKSAYKIVSGEAESVEVTPENLQDFVGKPVFTVERMYDVTPPGVVMGLAWTAMGGSTLFVETSLRRPQDKDAKGDKDGSLEVTGQLGEVMKESARIAYTFARAFLMQHAPANDYLVTSHIHLHVPEGATPKDGPSAGCTIVTALLSLAMGRPVRQNLAMTGEVSLTGKILPVGGIKEKTIAAKRAGVTCIVLPAENKKDFYDLAAFITEGLEVHFVEHYREIFDIAFPDEQAEALAVER
Regarding B1, the Kd was found to be 0.829 nM, the koff was 0.000151 s⁻¹ and the kon came to 182000 M⁻¹ s⁻¹.

What is called Kd is the concentration at which binding is half-saturated. In general, koff refers to the rate constant with which the complex falls apart. High values mean a short-lived complex, low ones a long-lived complex. Usually kon stands for the second-order rate constant of association. A lower kon goes with slower complex formation.
